This is an account of results in patent US20210285024.

Data set [1] has as its target human tubulin purified from HEK293 cells.
The target in data set [2] is tubulin purified from Spodoptera Frugiperda Sf9 cells (fully tyrosinated; used as purified tubulin or polymerised microtubules).

B1: recombinant SVBP-VASH2 complex (protein)
chain 1: not shown
chain 2: MDPPARKEKTKVKESVSRVEKAKQKSAQQELKQRQRAEIYALNRVMTELEQQQFDEFCKQMQPPGE
In the case of B1, the “detyrosination assay (western blot, relative optical density detyrosination/tubulin)” value in data set [1] is “the fold induction of the tubulin detyrosination resulting from SVBP-VASH2 complex was significantly lower with human tubulin purified from HEK293 cells in comparison to the one obtained using Sf9 cells extracted tubulin”; in data set [2], “SVBP-VASH2 complex strongly induced detyrosination in the assay”.
